Measurements reported in patent US20180362652A1 (Biogen, published 2018).
Where “and” joins values, the source holds several entries; their conditions need not be identical. Equal entries are not always repeated.

Legend:
[1] = target: T1, cynomolgus monkey BDCA2 (full-length, cell surface, E73 SNP form) (cynomolgus monkey, UniProt Q8WTT0 1-213 (human entry)); experiment: flow cytometry, Alexa647-labelled BIIB059 on pDCs in cynomolgus monkey whole blood, on ice
T1 construct: also called cyno BDCA2; surface cynomolgus monkey BDCA2
T1 chain: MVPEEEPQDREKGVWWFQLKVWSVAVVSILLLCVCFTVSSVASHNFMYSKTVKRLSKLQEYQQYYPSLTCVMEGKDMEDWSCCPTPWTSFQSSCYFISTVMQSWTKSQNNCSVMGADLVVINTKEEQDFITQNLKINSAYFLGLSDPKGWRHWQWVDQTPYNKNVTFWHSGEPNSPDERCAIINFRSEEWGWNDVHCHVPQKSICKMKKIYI
Procedure: (§1) Cynomolgus monkey (Toxikon, Inc, Bedford, Mass.) or human peripheral blood (Biogen Idec) were collected in sodium heparin collection tubes and maintained at room temperature. A FACS staining antibody cocktail for identifying pDCs was added to each whole blood aliquot, incorporating CD20, CD14, CD123 and HLA-DR antibodies. […] Blood was incubated on ice, protected from light, for 30 min. […] After a 10-15 min. incubation at room temperature, samples were centrifuged at 1400 rpm for 5 min. The supernatant was decanted, leaving only a pellet of white blood cells (WBC). Each WBC pellet was washed with 5 mL of FACS buffer (1% BSA+0.002% NaAzide+1 mM CaCl₂+1 mM MgCl₂ in PBS), and centrifuged at 1400 rpm for 5 min. The supernatant was decanted, and each WBC pellet was resuspended in 200 μL of FACS buffer and transferred to a 96-well round bottom plate (Fisher Scientific). The plate was centrifuged at 1400 rpm for 5 min. The supernatant was dumped out of the plate, and each WBC pellet was washed with 200 μL of FACS buffer. The plate was centrifuged at 1400 rpm for 5 min, and the supernatant dumped out of the plate. Following washing (as above), WBCs were resuspended in 200 μL of 1% paraformaldehyde (PFA) in PBS, and fixed at 4° C. overnight, protected from light. […] Each WBC pellet was resuspended in 250 μL of FACS buffer and fluorescence intensity measured on a LSRII 4-color FACS machine. […]

[2] = target: T2, human C1q (human, UniProt P02745 23-245; P02746 28-253; P02747 29-245); experiment: C1q ELISA: antibody coated in a dilution series, human C1q at 2 µg/mL, read at 450 nm; column C (midpoint, the C value of paragraph 430) of the printed 4-parameter fit; the axis reads Concentration with no unit, the unit of the coated antibody is from the legend paragraph 61; A 0.061, B 2.527, D 2.212, R^2 1
T2 construct: also called complement component C1q
T2 sequence (P02745 23-245 limits assumed, chain 1 of 3): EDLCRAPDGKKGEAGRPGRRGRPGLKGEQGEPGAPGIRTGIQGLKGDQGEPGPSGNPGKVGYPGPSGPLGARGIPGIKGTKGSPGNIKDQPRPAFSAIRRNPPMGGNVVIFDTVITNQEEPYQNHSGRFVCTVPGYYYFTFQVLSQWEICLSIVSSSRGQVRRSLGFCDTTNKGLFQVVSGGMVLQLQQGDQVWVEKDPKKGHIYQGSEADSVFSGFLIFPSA
T2 sequence (P02746 28-253 limits assumed, chain 2 of 3): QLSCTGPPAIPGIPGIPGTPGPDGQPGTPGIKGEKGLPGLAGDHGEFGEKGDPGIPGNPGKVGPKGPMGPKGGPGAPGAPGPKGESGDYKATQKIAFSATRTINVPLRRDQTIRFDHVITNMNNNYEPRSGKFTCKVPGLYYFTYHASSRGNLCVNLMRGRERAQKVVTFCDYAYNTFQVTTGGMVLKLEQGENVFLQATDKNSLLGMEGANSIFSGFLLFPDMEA
T2 sequence (P02747 29-245 limits assumed, chain 3 of 3): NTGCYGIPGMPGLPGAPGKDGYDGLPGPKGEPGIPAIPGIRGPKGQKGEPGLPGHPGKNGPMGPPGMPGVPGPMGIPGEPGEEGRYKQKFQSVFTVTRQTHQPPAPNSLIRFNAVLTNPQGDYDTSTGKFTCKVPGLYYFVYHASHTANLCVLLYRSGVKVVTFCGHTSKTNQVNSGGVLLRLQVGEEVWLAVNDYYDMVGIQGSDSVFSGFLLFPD

[3] = target: T3, human BDCA2 (full-length, cell surface) (human, UniProt Q8WTT0 1-213); experiment: flow cytometry, whole blood, Alexa647-labeled BIIB059 on pDCs
T3 construct: also called huBDCA2; surface human BDCA2
T3 sequence: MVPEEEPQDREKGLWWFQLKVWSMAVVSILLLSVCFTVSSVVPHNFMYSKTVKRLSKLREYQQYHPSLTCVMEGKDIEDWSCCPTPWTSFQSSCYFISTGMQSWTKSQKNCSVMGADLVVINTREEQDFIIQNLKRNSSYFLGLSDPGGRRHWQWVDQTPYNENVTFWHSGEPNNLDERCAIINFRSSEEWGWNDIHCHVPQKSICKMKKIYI
Procedure: as §1

[4] = target: T1, cynomolgus monkey BDCA2 (full-length, …); experiment: as above
Procedure: as §1

[5] = target: T1, cynomolgus monkey BDCA2 (full-length, …); experiment: flow cytometry, whole blood pDCs of cynomolgus monkey donor 1, anti-human IgG PE secondary
Procedure: The MFI of PE was calculated in FlowJo software, and the percent of maximal binding, using the 40 μg/mL point as 100%, was computed. Each line represents one individual cynomolgus monkey, for a total of twelve cynomolgus monkeys, and graphed using GraphPad Prism software (four-parameter nonlinear regression curve fit of log-transformed data). Staining was repeated once a week for three weeks total.
The maximal values were taken from the values at the plateau in each assay (FIGS. 24 and 25).
MFI of PE was calculated with FlowJo software, and EC50 curves were generated in GraphPad Prism software.

B1: BIIB059 (antibody, human IgG1, kappa)
heavy: not shown
light: DIQLTQSPSSLSASVGDRVTITCKASQSVDYDGDSYMNWYQQKPGKAPKLLIYAASTLESGVPSRFSGSGSGTDFTLTISSLQPEDFATYYCQQANEDPRTFGQGTKVEIKRTVAAPSVFIFPPSDEQLKSGTASVVCLLNNFYPREAKVQWKVDNALQSGNSQESVTEQDSKDSTYSLSSTLTLSKADYEKHKVYACEVTHQGLSSPVTKSFNRGEC
notes: Humanized IgG1 kappa, mature chains; in some assays labelled with Alexa647; also called hu24F4 H4/L1 C95A; H4-L1-C95A (YL751/YL746)
In the case of B1, the EC50 [1] is reported as 0.944 µg/mL, the EC50 [2] is reported as 2.5 µg/mL and the EC50 [3] is reported as 1 µg/mL to 2 µg/mL (2×) and 7 nM to 13 nM. For the same binder, the EC50 [4] was 2 µg/mL and 7 nM to 13 nM and the EC50 [5] was 0.81 µg/mL.
